These are literature values, as cited in PMC2562372.

As usually defined, the Kd is the constant that tells how readily two partners part at equilibrium.

Among the targets are NRP1 (Homo sapiens) (UniProt O14786); VEGFR2 (Homo sapiens) (UniProt P35968); VEGFR1 (Homo sapiens) (UniProt P17948).
Sequence of UniProt O14786 (O14786 22-923): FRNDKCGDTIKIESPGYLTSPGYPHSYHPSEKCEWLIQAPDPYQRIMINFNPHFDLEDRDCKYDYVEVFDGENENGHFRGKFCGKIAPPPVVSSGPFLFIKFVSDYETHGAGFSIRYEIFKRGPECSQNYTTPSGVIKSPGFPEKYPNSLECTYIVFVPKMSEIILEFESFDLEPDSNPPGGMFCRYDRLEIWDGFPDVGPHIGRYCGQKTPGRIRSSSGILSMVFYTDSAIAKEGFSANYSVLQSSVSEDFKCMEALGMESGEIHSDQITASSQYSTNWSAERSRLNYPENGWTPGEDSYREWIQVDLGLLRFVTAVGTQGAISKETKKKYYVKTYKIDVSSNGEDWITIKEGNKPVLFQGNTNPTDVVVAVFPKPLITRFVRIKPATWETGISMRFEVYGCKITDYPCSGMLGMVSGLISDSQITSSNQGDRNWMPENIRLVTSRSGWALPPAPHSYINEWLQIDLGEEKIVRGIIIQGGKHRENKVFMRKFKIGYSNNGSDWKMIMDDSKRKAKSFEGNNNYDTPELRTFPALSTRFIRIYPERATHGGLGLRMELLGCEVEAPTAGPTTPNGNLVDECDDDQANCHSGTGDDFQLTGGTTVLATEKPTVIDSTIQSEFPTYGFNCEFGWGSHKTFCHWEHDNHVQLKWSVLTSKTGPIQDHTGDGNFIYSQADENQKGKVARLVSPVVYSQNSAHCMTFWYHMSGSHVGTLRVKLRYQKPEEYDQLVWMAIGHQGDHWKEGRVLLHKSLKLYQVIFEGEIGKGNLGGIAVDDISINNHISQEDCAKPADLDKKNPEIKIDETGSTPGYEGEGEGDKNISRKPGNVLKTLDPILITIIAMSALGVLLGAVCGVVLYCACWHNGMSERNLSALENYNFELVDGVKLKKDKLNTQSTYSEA
Sequence of UniProt P17948 (P17948 27-1338): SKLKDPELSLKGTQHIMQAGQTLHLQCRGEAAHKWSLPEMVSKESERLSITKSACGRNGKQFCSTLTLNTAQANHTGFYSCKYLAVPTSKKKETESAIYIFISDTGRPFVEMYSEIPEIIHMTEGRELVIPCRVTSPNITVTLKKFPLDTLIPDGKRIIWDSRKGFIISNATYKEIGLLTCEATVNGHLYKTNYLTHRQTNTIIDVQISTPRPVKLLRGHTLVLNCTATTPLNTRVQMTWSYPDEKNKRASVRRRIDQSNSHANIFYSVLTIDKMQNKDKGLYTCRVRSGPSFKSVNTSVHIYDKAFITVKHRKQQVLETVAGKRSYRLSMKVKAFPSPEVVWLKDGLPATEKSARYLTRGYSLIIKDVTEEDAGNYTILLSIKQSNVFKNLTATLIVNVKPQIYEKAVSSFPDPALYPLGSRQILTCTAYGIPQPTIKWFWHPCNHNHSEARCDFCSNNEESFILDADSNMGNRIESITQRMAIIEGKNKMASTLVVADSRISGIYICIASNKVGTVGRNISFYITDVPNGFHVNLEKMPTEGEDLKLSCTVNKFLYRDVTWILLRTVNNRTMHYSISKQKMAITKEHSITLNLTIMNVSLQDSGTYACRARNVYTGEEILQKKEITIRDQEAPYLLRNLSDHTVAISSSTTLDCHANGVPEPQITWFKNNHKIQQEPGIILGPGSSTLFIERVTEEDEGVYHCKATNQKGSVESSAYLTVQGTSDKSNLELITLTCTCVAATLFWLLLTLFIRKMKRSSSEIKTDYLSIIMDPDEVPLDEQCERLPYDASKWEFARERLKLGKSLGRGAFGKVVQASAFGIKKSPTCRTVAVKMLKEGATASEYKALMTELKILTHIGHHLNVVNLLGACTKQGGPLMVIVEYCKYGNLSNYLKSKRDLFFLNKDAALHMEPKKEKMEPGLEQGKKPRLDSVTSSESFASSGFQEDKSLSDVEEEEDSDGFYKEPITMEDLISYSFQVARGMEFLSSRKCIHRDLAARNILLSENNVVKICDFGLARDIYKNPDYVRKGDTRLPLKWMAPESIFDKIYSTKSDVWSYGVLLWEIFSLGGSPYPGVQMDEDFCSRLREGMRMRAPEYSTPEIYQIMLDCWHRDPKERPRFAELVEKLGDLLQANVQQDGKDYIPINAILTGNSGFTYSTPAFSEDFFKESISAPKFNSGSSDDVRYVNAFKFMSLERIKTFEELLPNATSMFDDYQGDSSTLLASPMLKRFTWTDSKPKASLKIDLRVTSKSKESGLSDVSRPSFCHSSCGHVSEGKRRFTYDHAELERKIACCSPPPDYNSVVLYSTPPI
Sequence of UniProt P35968 (P35968 20-1356): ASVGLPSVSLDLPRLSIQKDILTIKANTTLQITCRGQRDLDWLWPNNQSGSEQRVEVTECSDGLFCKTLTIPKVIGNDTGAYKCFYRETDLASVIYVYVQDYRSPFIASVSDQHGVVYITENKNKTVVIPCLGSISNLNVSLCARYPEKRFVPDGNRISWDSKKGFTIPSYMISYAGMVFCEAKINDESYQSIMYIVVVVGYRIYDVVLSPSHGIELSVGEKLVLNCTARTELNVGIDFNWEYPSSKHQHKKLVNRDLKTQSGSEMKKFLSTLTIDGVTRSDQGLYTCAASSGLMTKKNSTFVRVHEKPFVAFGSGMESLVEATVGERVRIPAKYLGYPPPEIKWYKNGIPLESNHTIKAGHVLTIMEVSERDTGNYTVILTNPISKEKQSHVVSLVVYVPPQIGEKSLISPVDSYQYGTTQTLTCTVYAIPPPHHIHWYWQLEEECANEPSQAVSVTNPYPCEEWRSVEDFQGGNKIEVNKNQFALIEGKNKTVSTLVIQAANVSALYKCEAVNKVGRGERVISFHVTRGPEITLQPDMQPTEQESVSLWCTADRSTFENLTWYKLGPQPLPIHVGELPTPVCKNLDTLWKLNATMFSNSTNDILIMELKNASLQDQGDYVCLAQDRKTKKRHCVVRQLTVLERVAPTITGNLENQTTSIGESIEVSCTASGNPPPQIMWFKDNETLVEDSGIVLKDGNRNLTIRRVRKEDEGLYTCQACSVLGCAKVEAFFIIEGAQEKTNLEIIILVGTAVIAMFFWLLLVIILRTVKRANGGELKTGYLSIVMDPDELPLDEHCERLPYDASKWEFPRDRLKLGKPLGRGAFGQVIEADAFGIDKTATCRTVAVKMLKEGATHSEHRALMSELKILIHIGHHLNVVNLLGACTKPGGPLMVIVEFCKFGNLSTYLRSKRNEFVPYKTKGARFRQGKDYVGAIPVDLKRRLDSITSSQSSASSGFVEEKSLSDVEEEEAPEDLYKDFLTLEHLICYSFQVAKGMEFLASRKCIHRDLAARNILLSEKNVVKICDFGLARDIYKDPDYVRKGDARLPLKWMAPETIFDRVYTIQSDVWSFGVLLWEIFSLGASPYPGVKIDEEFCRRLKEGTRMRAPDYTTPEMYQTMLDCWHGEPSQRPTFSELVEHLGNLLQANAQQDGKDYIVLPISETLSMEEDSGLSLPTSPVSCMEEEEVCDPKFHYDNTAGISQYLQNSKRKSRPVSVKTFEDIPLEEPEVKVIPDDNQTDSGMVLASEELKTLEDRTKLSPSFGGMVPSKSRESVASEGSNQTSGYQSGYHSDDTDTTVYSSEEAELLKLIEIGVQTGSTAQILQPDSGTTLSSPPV

Consider VEGF165 (from UniProt P15692), for which the dissociation constant Kd with NRP1 (Homo sapiens) was 0.312 nM. As for VEGF (from UniProt P15692), the equilibrium dissociation constant (Kd) with VEGFR2 (Homo sapiens) was 0.1 nM; with VEGFR1 (Homo sapiens) it was 0.033 nM.
